Sequences and labels used below:
B1: Y010355 (antibody, V domains shown)
VH: EVQLVESGGGLVKPGGSLRLSCAASGFTFSNYWISWVRQAPGKGLEWVGRIKSKTYGGTTDYAEPVKGRFTISRDDSKNTLYLQMNSLKTEDTAVYYCARTSRRSYAFDYWGQGTLVTVSS
VL: DIQMTQSPSTLSASVGDRVTITCRASQSISSWLAWYQQKPGKAPKLLIYDASSLESGVPSRFSGSGSGTEFTLTISSLQPEDFATYYCQQITRYPVTFGQGTKVEIK
B2: Y010356 (antibody, V domains shown)
VH: EVQLVESGGGLVKPGGSLRLSCAASGFTFSNYWISWVRQAPGKGLEWVGRIKSKTYGGTTDYAEPVKGRFTISRDDSKNTLYLQMNSLKTEDTAVYYCARVSGYYSHSGGFDVWGQGTLVTVSS
VL: DIQMTQSPSSLSASVGDRVTITCRASQGISNYLAWYQQKPGKVPKLLIYAASTLQSGVPSRFSGSGSGTDFTLTISSLQPEDVATYYCQKTWRTPGTFGQGTKVEIK
B3: Y010417 (antibody, V domains shown)
VH: EVQLVQSGAEVKKPGESLKISCKGSGYSFTSYWIGWVRQMPGKGLEWMGIIYPGDSDTRYSPSFQGQVTISADKSISTAYLQWSSLKASDTAMYYCARGSSAASGLSGDLWGQGTLVTVSS
VL: DIQMTQSPSSLSASVGDRVTITCRASQSISSYLNWYQQKPGKAPKLLIYAASSLQSGVPSRFSGSGSGTDFTLTISSLQPEDFATYYCQQDYYSPFTFGQGTKVEIK
B4: Y010903 (antibody, V domains shown)
VH: EVQLVESGGGLVKPGGSLRLSCAASGFTFSNAWMSWVRQAPGKGLEWVGRIKSKTDAGTTDYAAPVKGRFTISRDDSKNTLYLQMNSLKTEDTAVYYCARASHRLHSLFDVWGQGTLVTVSS
VL: DIQMTQSPSTLSASVGDRVTITCRASQSISSWLAWYQQKPGKAPKLLIYDASSLESGVPSRFSGSGSGTEFTLTISSLQPEDFATYYCQQGLFYPHTFGQGTKVEIK
B5: MOR024354 (antibody, V domains shown)
VH: QVQLLESGGGLVQPGGSLRLSCAASGFTFSSFGMSWVRQAPGKGLEWVSAISYSGSDTYYADSVKGRFTISRDNSKNTLYLQMNSLRAEDTAVYYCARDVGVMDYWGQGTLVTVSS
VL: SYELTQPLSVSVALGQTARITCSGDNLGTYYAHWYQQKPGQAPVLVIYSQSHRPSGIPERFSGSNSGNTATLTISRAQAGDEADYYCGAWDAPSPELVFGGGTKLTVL
B6: Y010900 (antibody, V domains shown)
VH: EVQLVESGGGLVKPGGSLRLSCAASGFTFSNAWMSWVRQAPGKGLEWVGRIKSKTDAGTTDYAAPVKGRFTISRDDSKNTLYLQMNSLKTEDTAVYYCARTIYPSAPSSSLDYWGQGTLVTVSS
VL: DIQMTQSPSSLSASVGDRVTITCRASQGISNYLAWYQQKPGKVPKLLIYAASTLQSGVPSRFSGSGSGTDFTLTISSLQPEDVATYYCQQLIFFPLTFGQGTKVEIK
B7: Y010910 (antibody, V domains shown)
VH: EVQLVESGGGLVKPGGSLRLSCAASGFTFSNAWMSWVRQAPGKGLEWVGRIKSKTDAGTTDYAAPVKGRFTISRDDSKNTLYLQMNSLKTEDTAVYYCARVASPSAPGGFDYWGQGTLVTVSS
VL: DIQMTQSPSSLSASVGDRVTITCRASQGISNYLAWYQQKPGKVPKLLIYAASTLQSGVPSRFSGSGSGTDFTLTISSLQPEDVATYYCQQSLFAPFTFGQGTKVEIK
B8: Y010906 (antibody, V domains shown)
VH: EVQLVESGGGLVKPGGSLRLSCAASGFTFSNAWMSWVRQAPGKGLEWVGRIKSKTDAGTTDYAAPVKGRFTISRDDSKNTLYLQMNSLKTEDTAVYYCARDEYPWGWFDVWGQGTLVTVSS
VL: DIQMTQSPSSVSASVGDRVTITCRASQGISSWLAWYQQKPGKAPKLLIYAASSLQSGVPSRFSGSGSGTDFTLTISSLQPEDFATYYCQQYIFYPLTFGQGTKVEIK

For one assay, the target named is human PMEL17 (human) (UniProt P40967). Description: FACS titration of IgG on G-361 cells (human melanoma), PE detection antibody.
Chain of human PMEL17 (human) (P40967 25-661): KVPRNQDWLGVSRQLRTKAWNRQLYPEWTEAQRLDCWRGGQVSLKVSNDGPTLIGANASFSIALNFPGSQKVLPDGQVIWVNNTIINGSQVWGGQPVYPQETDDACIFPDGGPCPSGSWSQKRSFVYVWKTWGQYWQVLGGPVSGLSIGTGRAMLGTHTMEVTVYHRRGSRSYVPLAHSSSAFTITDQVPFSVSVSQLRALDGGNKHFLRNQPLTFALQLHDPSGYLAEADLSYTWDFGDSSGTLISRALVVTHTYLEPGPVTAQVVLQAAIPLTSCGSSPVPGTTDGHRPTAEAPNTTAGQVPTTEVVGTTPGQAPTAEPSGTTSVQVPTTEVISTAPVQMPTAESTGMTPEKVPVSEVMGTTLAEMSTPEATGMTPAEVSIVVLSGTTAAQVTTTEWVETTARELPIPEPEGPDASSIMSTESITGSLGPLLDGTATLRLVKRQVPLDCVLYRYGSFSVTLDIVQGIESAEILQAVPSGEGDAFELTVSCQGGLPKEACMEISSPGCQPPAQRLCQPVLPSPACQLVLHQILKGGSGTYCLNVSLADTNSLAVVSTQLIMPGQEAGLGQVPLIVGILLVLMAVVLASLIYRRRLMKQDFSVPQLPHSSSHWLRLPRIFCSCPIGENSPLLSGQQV
Usually EC50 stands for the concentration needed to bring the measured effect to its halfway point. A low value points to an effect from little substance. Take B1: the EC50 was determined as 0.5 nM.
Still for that read-out and setting: the value for B2 was 1.6 nM.
Same read-out and setting: under B3 stands 2.8 nM.

The next assay shares this target. Description: FACS titration of IgG on G-361 cells (human melanoma), Alexa Fluor detection antibody.
Molecule B4 registered an EC50 of 3.2 nM.
Still for that read-out and setting: the value for B5 was 1.7 nM; that for B6 was 1.3 nM.
The molecule B7 yielded an EC50 of 10 nM. Against the preceding molecule, the EC50 is about 7.7-fold higher.
The molecule B8 gave a concentration giving a half-maximal response (EC50) of 2 nM.

The values are drawn from patent publication US20240189439A1.
